The data set deals with the molecule itself. In words: SEC. On the technique in general: SEC sorts molecules by how far they enter the pores of the column.

B1: PfuAmyGT (PF0272) from Pyrococcus furiosus, wild type (enzyme, UniProt P49067 1-649, looked up)
chain: MGDKINFIFGIHNHQPLGNFGWVFEEAYEKCYWPFLETLEEYPNMKVAIHTSGPLIEWLQDNRPEYIDLLRSLVKRGQVEIVVAGFYEPVLASIPKEDRIEQIRLMKEWAKSIGFDARGVWLTERVWQPELVKTLKESGIDYVIVDDYHFMSAGLSKEELYWPYYTEDGGEVIAVFPIDEKLRYLIPFRPVDKVLEYLHSLIDGDESKVAVFHDDGEKFGIWPGTYEWVYEKGWLREFFDRISSDEKINLMLYTEYLEKYKPRGLVYLPIASYFEMSEWSLPAKQARLFVEFVNELKVKGIFEKYRVFVRGGIWKNFFYKYPESNYMHKRMLMVSKLVRNNPEARKYLLRAQCNDAYWHGLFGGVYLPHLRRAIWNNLIKANSYVSLGKVIRDIDYDGFEEVLIENDNFYAVFKPSYGGSLVEFSSKNRLVNYVDVLARRWEHYHGYVESQFDGVASIHELEKKIPDEIRKEVAYDKYRRFMLQDHVVPLGTTLEDFMFSRQQEIGEFPRVPYSYELLDGGIRLKREHLGIEVEKTVKLVNDGFEVEYIVNNKTGNPVLFAVELNVAVQSIMESPGVLRGKEIVVDDKYAVGKFALKFEDEMEVWKYPVKTLSQSESGWDLIQQGVSYIVPIRLEDKIRFKLKFEEASG
What is called stoichiometry N is a count of units in the complex or per binding partner. B1: the “stoichiometry N” value is 2.
